Experimental data reported in patent publication US20090082262.

How the values were obtained:
[1] = tested on: T1, PHC-1 (HCC-1[9-74])
T1 sequence: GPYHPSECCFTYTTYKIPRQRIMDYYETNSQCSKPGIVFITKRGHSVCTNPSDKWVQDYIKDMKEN

[2] = tested on: T2, full size HCC-1 (HCC-1, residues 1-74)
T2 sequence: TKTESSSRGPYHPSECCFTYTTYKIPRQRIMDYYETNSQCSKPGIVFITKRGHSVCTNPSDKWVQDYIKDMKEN

Row | Substance | proteolytic degradation, activity after 90 min at 37° C with 10 or 100 IU urokinase [1] | proteolytic cleavage; product analysed by RP-HPLC, CCR5 aequorin assay, mass spectrometry and Edman degradation [2] | tryptic digestion, 1 h, enzyme/substrate-ratio (w/w) 1/100 [2]
1 | urokinase | No change of activity was observed after an incubation of 90 min at 37 °C | identifying PHC-1 and full size HCC-1 as the major compounds in these fractions | 
2 | trypsin |  |  | One cleavage product, the newly identified biologically active peptide PHC-1, comprising residues 9-74 of the HCC-1 precursor sequence, with the molecular mass of 7795 Da was obtained
